The values below are quoted from earlier work in PMC3774674.

pKd: −log10 of the molar value.

This data set has as its target E-cadherin EC12 (Mus musculus) (UniProt P09803).

The term pKd denotes the Kd on a negative log10 scale, so that one unit is a factor of ten. For the substance E-cadherin EC12 (from UniProt P09803), the pKd is 4.01.
